Results: article PMC7144210

Key:
[1] = target: Fc-tagged fibre 1 of the novel FAdV-4 (fowl adenovirus serotype 4 (FAdV-4), strain HLJFAd15)
[2] = target: Fc-tagged fibre 1 of the novel FAdV-4 (fowl adenovirus serotype 4 (FAdV-4), strain HLJFAd15); remark: listed apart in the source

Substance	block of FAdV-4 infectivity in LMH cells (qPCR at 24 hpi) after pre-incubation of the virus with 12.5 or 25.0 ng/μl D2-CAR; 78% at 12.5 ng/μl, 99.9% at 25 ng/μl [1] [%]	block of FAdV-4 infection of LMH cells (qPCR at 24 hpi) after pre-incubation of the virus with 3.125–12.5 ng/μl soluble CAR protein; Fc protein as negative control [2] [%]
D2 domain of chicken CAR, soluble, His-tagged (domain or fragment)	99.9	
Fc-tagged CAR protein, soluble (Fc fusion)		76 to 80
